Like-named read-outs stand apart in the source and are kept apart here.
What was measured:
[1] = molecular target: T1, Human CD39-His protein (CD9-H52H4, ACRO Biosystems) (human, UniProt P49961 38-478); assay: BLI (Fortebio), antibody on AHC probe, human CD39-His in solution
T1 construct: Purchased protein; also called human CD39-His antigen; human CD39 protein; not shown: His tag
T1 sequence (looked up): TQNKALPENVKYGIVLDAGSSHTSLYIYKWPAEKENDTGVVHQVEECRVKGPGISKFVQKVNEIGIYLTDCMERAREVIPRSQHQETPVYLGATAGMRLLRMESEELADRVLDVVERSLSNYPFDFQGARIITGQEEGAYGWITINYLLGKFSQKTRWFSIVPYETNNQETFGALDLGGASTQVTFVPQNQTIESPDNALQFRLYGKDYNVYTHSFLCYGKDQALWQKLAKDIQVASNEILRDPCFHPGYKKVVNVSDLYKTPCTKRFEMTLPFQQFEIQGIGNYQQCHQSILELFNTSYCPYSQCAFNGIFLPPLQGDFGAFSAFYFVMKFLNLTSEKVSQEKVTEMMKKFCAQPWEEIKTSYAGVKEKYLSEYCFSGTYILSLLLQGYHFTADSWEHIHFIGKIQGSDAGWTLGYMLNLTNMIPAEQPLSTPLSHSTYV

[2] = molecular target: T1, Human CD39-His protein (CD9-H52H4, ACRO …); assay: as above; remark: listed apart in the source

B1: control antibody H5L5 (Patent CN112714768A) (antibody, V domains shown)
VH: QVQLVQSGAEVKKPGASVKVSCKASGYNLKDTFLHWVRQAPGQGLEWMGRIDPANGNIKYDPKFQGRVTITADTSANTAYMELISLRSEDTAVYYCANSPYYYGSGYRIFDVWGQGTTVTVSS
VL: QIVLTQSPATLSLSPGERATLSCSAFSSVNYMHWYQQKPGQAPRLLIYTTSNLASGIPTRFSGSGSGTSYTLTISSLEPEDFAVYYCQQRSTYPFTFGQGTKLEIKR
notes: Anti-CD39 control antibody; also called H5L5 control antibody
B1 was tested, and the Kd [1] was 1.28 nM, the koff [1] was 0.000408 s⁻¹ and the kon [1] was 320000 M⁻¹ s⁻¹. For the same binder, the Kd [2] was 0.802 nM, the koff [2] was 0.000168 s⁻¹ and the kon [2] was 210000 M⁻¹ s⁻¹.

From patent publication EP4722247A1 (Oricell Therapeutics Co., Ltd., dated 2026)
